The values that follow come from US20160130315A1 (AJOU UNIVERSITY INDUSTRY ACADEMIC COOPERATION FOUNDATION, published 2016).

Where two headings read alike, the source gives them in different places.

B1: b1b2 domains (275-595) of neuropilin-2 (receptor, UniProt O60462 275-595, looked up)
chain: FQCNVPLGMESGRIANEQISASSTYSDGRWTPQQSRLHGDDNGWTPNLDSNKEYLQVDLRFLTMLTAIATQGAISRETQNGYYVKSYKLEVSTNGEDWMVYRHGKNHKVFQANNDATEVVLNKLHAPLLTRFVRIRPQTWHSGIALRLELFGCRVTDAPCSNMLGMLSGLIADSQISASSTQEYLWSPSAARLVSSRSGWFPRIPQAQPGEEWLQVDLGTPKTVKGVIIQGARGGDSITAVEARAFVRKFKVSYSLNGKDWEYIQDPRTQQPKLFEGNMHYDTPDIRRFDPIPAQYVRVYPERWSPAGIGMRLEVLGCDWT
notes: range 275-595; Purified soluble domain; also called NRP2-b1b2; NRP-2 b1b2
B2: VEGF165A (ligand, UniProt P15692-4 27-191, looked up)
chain: APMAEGGGQNHHEVVKFMDVYQRSYCHPIETLVDIFQEYPDEIEYIFKPSCVPLMRCGGCCNDEGLECVPTEESNITMQIMRIKPHQGQHIGEMSFLQHNKCECRPKKDRARQENPCGPCSERRKHLFVQDPQTCKCSCKNTDSRCKARQLELNERTCRCDKPRR
notes: Control ligand; biotinylated in the ELISA; also called vascular endothelial cell growth factor-A
B3: b1b2 domains (273-586) of neuropilin-1 (receptor, UniProt O14786 273-586, looked up)
chain: FKCMEALGMESGEIHSDQITASSQYSTNWSAERSRLNYPENGWTPGEDSYREWIQVDLGLLRFVTAVGTQGAISKETKKKYYVKTYKIDVSSNGEDWITIKEGNKPVLFQGNTNPTDVVVAVFPKPLITRFVRIKPATWETGISMRFEVYGCKITDYPCSGMLGMVSGLISDSQITSSNQGDRNWMPENIRLVTSRSGWALPPAPHSYINEWLQIDLGEEKIVRGIIIQGGKHRENKVFMRKFKIGYSNNGSDWKMIMDDSKRKAKSFEGNNNYDTPELRTFPALSTRFIRIYPERATHGGLGLRMELLGCEVE
notes: range 273-586; Purified soluble domain; No tag described; also called NRP1-b1b2; NRP-1 b1b2
B4: Sema3A (26-760) (ligand, UniProt Q14563 26-760, looked up)
chain: KNNVPRLKLSYKEMLESNNVITFNGLANSSSYHTFLLDEERSRLYVGAKDHIFSFDLVNIKDFQKIVWPVSYTRRDECKWAGKDILKECANFIKVLKAYNQTHLYACGTGAFHPICTYIEIGHHPEDNIFKLENSHFENGRGKSPYDPKLLTASLLIDGELYSGTAADFMGRDFAIFRTLGHHHPIRTEQHDSRWLNDPKFISAHLISESDNPEDDKVYFFFRENAIDGEHSGKATHARIGQICKNDFGGHRSLVNKWTTFLKARLICSVPGPNGIDTHFDELQDVFLMNFKDPKNPVVYGVFTTSSNIFKGSAVCMYSMSDVRRVFLGPYAHRDGPNYQWVPYQGRVPYPRPGTCPSKTFGGFDSTKDLPDDVITFARSHPAMYNPVFPMNNRPIVIKTDVNYQFTQIVVDRVDAEDGQYDVMFIGTDVGTVLKVVSIPKETWYDLEEVLLEEMTVFREPTAISAMELSTKQQQLYIGSTAGVAQLPLHRCDIYGKACAECCLARDPYCAWDGSACSRYFPTAKRRTRRQDIRNGDPLTHCSDLHHDNHHGHSPEERIIYGVENSSTFLECSPKSQRALVYWQFQRRNEERKEEIRVDDHIIRTDQGLLLRSLQQKDSGNYLCHAVEHGFIQTLLKVTLEVIDTEHLEELLHKDDDGDGSKTKEMSNSMTPSQKVWYRDFMQLINHPNLNTMDEFCEQVWKRDRKQRRQRPGHTPGNSNKWKHLQENKKGRNRR
notes: range 26-760; Control ligand; Biotinylated in the ELISA; also called Semaphorin3A; Semaphorin 3A

The experiment “Sema3A (26-760)” deals with B4. Put plainly: SPR Biacore 2000, NRP b1b2 on CM5 chip. (In general: SPR reads the build-up and loss of mass on a sensor chip optically.)
Another experiment addresses T1, Sema3F (19-779) (UniProt Q13275 19-779).
T1 construct: range 19-779; Control ligand; Biotinylated in the ELISA; also called Semaphorin 3F
T1 sequence (looked up): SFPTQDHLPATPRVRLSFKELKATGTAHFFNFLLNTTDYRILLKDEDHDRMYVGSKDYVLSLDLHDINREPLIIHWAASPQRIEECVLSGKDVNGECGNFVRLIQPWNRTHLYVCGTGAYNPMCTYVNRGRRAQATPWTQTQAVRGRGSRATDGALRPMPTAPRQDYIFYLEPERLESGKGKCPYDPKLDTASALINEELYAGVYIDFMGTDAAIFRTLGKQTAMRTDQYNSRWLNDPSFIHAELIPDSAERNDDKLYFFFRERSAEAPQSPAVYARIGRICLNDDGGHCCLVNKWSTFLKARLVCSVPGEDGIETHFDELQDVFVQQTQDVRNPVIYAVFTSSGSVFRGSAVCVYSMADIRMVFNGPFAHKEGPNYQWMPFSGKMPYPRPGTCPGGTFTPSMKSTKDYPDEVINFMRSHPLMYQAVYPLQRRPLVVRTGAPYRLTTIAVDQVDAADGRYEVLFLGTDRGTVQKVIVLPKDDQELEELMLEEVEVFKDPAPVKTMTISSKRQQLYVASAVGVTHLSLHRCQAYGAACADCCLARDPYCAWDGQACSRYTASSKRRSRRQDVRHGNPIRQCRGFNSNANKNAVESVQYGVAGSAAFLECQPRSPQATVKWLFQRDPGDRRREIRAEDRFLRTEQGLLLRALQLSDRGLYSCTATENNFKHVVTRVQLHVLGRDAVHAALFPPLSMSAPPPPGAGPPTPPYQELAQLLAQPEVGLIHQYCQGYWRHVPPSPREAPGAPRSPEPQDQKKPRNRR
In words: SPR Biacore 2000, NRP b1b2 on CM5 chip. On the procedure: (§1) Specifically, each b1b2 domain of neuropilin-1 and -2 was diluted with 10 mM Na-acetate buffer (pH 4.0), and fixed onto CM5 sensor chips (GE healthcare, USA) in about 1000 response units (RU). […] After bond and dissociation analysis, the regeneration of CM5 chip was performed by streaming a buffer (20 Mm NaOH, 1 M NaCl, pH 10.0) at a stream velocity 30 μl/min for 1 minute.

Experiment [1] deals with B1. In words: SPR Biacore 2000, NRP b1b2 on CM5 chip. Here is the method:
as §1

For experiment [2], the target named is B3. Put plainly: SPR Biacore 2000, NRP b1b2 on CM5 chip. Here is the method:
as §1

Experiment [3] addresses B1. In words: SPR Biacore 2000, NRP b1b2 on CM5 chip. On the procedure: as §1
This is another data set of the same source.

For experiment [4], the target named is B3. In words: SPR Biacore 2000, NRP b1b2 on CM5 chip. On the procedure: as §1
This is another data set of the same source.

The target of experiment [5] is B3. Put plainly: competition ELISA on plate-bound NRP1-b1b2: VEGF165 titrated against Fc-15F22P (30 nM), absorbance at 405 nm [right panel Fc-15F22P]. Here is the method: (§2) Specifically, b1b2 domains (273-586) of neuropilin-1 and b1b2 domains (275-595) of neuropilin-2 were bound in 96-well EIA/RIA plates (COSTAR Corning In., USA) at room temperature for 1 hour, and then washed three times for 10 minutes with 0.1% PBST (0.1% Tween20, pH 7.4, 137 mM NaCl, 10 mM Phosphate, 2.7 mM KCl, SIGMA-ALDRICH co., USA). After binding for 1 hour with 5% skim milk (pH 7.4, 137 mM NaCl, 10 mM Phosphate, 2.7 mM KCl, SIGMA-ALDRICH co., USA), it was washed three times for 10 minutes with 0.1% PBST (0.1% Tween20, pH 7.4, 137 mM NaCl, 10 mM Phosphate, 2.7 mM KCl, SIGMA-ALDRICH co., USA).

In experiment [6] the target is B3. Put plainly: competition ELISA on plate-bound NRP1-b1b2: VEGF165 titrated against Fc-15A22P (30 nM), absorbance at 405 nm [left panel Fc-15A22P]. Here is the method: as §2
(An ELISA detects its analyte on a solid surface through an enzyme-linked reagent.)

Experiment [7] concerns the target B3. Put plainly: competition ELISA on plate-bound NRP1-b1b2: Sema3A titrated against Fc-15F22P (30 nM), absorbance at 405 nm [right panel Fc-15F22P]. Here is the method:
as §2

Experiment [8] addresses B3. Put plainly: competition ELISA on plate-bound NRP1-b1b2: Sema3A titrated against Fc-15A22P (30 nM), absorbance at 405 nm [left panel Fc-15A22P]. On the procedure:
as §2

Usually Kd stands for the equilibrium constant for the complex coming apart. Read a high Kd as weaker binding. By koff is commonly meant the first-order rate constant of dissociation. Higher therefore signals a short-lived complex. For orientation: kon means the rate constant with which the complex forms. Higher therefore signals fast association. In the experiment with Sema3A (26-760), B1 displayed a Kd of 231 nM, a koff of 0.00161 s⁻¹ and a kon of 6960 M⁻¹ s⁻¹. Further, in the experiment with Sema3F (19-779), the dissociation constant Kd was 345 nM, the dissociation rate constant (koff) stood at 0.0015 s⁻¹ and the kon turned out to be 4340 M⁻¹ s⁻¹.

With B2, the dissociation constant (Kd) in [1] worked out at 32 nM; in experiment [2], 3.51 nM; in experiment [3], 32 nM; in experiment [4], 3.51 nM. In addition, the off-rate (koff) in [1] came to 0.00373 s⁻¹; in [2], 0.00342 s⁻¹; in [3], 0.00373 s⁻¹; in experiment [4], 0.00342 s⁻¹. In addition, the association rate constant (kon) came out at 117000 M⁻¹ s⁻¹ in experiment [1], 975000 M⁻¹ s⁻¹ in experiment [2], 117000 M⁻¹ s⁻¹ in experiment [3] and 975000 M⁻¹ s⁻¹ in [4]. The “IC50 (read off the curve)” value was around 2 nM in [5] and around 3 nM in [6].

With B3, in the experiment with Sema3A (26-760), the Kd amounted to 27.9 nM, the koff amounted to 0.000808 s⁻¹ and the association rate constant (kon) worked out at 28900 M⁻¹ s⁻¹. In the experiment with Sema3F (19-779), the Kd worked out at 245 nM, the dissociation rate constant (koff) worked out at 0.000973 s⁻¹ and the kon was 3980 M⁻¹ s⁻¹.

In the case of B4, the “IC50 (read off the curve)” value in experiment [7] and in experiment [8] was around 20 nM in each case.
